{
  "source": "the supplement of paper PMC10567573",
  "parents": {"B1": {"name": "TSN (parent)", "chain": "FLAAEQDIREEIRKVVQSLEQTAR"}},
  "data": [
    {"variants_of": "B1", "assay": "protein stability index of a GFP-peptide fusion (GPS, HEK-293T) (PSI 1-6); higher = more stable", "conditions": "c terminus: a fixed tail appended", "values": [
      {"variant": "GLAAEQDIREEIRKVVQSLEQTAR", "note": "[F1G]", "protein stability index": 2.26},
      {"variant": "HLAAEQDIREEIRKVVQSLEQTAR", "note": "[F1H]", "protein stability index": 2.5},
      {"variant": "ILAAEQDIREEIRKVVQSLEQTAR", "note": "[F1I]", "protein stability index": 2.51},
      {"variant": "KLAAEQDIREEIRKVVQSLEQTAR", "note": "[F1K]", "protein stability index": 2.41},
      {"variant": "LLAAEQDIREEIRKVVQSLEQTAR", "note": "[F1L]", "protein stability index": 2.36},
      {"variant": "MLAAEQDIREEIRKVVQSLEQTAR", "note": "[F1M]", "protein stability index": 2.39},
      {"variant": "NLAAEQDIREEIRKVVQSLEQTAR", "note": "[F1N]", "protein stability index": 3.17},
      {"variant": "PLAAEQDIREEIRKVVQSLEQTAR", "note": "[F1P]", "protein stability index": 2.78},
      {"variant": "QLAAEQDIREEIRKVVQSLEQTAR", "note": "[F1Q]", "protein stability index": 2.23},
      {"variant": "RLAAEQDIREEIRKVVQSLEQTAR", "note": "[F1R]", "protein stability index": 2.79},
      {"variant": "SLAAEQDIREEIRKVVQSLEQTAR", "note": "[F1S]", "protein stability index": 2.51},
      {"variant": "TLAAEQDIREEIRKVVQSLEQTAR", "note": "[F1T]", "protein stability index": 2.72},
      {"variant": "VLAAEQDIREEIRKVVQSLEQTAR", "note": "[F1V]", "protein stability index": 2.62},
      {"variant": "WLAAEQDIREEIRKVVQSLEQTAR", "note": "[F1W]", "protein stability index": 1.85},
      {"variant": "YLAAEQDIREEIRKVVQSLEQTAR", "note": "[F1Y]", "protein stability index": 2.04},
      {"variant": "FAAAEQDIREEIRKVVQSLEQTAR", "note": "[L2A]", "protein stability index": 2.19},
      {"variant": "FCAAEQDIREEIRKVVQSLEQTAR", "note": "[L2C]", "protein stability index": 1.82},
      {"variant": "FDAAEQDIREEIRKVVQSLEQTAR", "note": "[L2D]", "protein stability index": 1.73},
      {"variant": "FEAAEQDIREEIRKVVQSLEQTAR", "note": "[L2E]", "protein stability index": 1.68},
      {"variant": "FFAAEQDIREEIRKVVQSLEQTAR", "note": "[L2F]", "protein stability index": 1.71},
      {"variant": "FGAAEQDIREEIRKVVQSLEQTAR", "note": "[L2G]", "protein stability index": 3.19},
      {"variant": "FHAAEQDIREEIRKVVQSLEQTAR", "note": "[L2H]", "protein stability index": 1.75},
      {"variant": "FIAAEQDIREEIRKVVQSLEQTAR", "note": "[L2I]", "protein stability index": 1.66},
      {"variant": "FKAAEQDIREEIRKVVQSLEQTAR", "note": "[L2K]", "protein stability index": 2.11},
      {"variant": "FMAAEQDIREEIRKVVQSLEQTAR", "note": "[L2M]", "protein stability index": 1.96},
      {"variant": "FNAAEQDIREEIRKVVQSLEQTAR", "note": "[L2N]", "protein stability index": 2.38},
      {"variant": "FPAAEQDIREEIRKVVQSLEQTAR", "note": "[L2P]", "protein stability index": 2.68},
      {"variant": "FQAAEQDIREEIRKVVQSLEQTAR", "note": "[L2Q]", "protein stability index": 2.03},
      {"variant": "FRAAEQDIREEIRKVVQSLEQTAR", "note": "[L2R]", "protein stability index": 2.4},
      {"variant": "FSAAEQDIREEIRKVVQSLEQTAR", "note": "[L2S]", "protein stability index": 1.91},
      {"variant": "FTAAEQDIREEIRKVVQSLEQTAR", "note": "[L2T]", "protein stability index": 2.08},
      {"variant": "FVAAEQDIREEIRKVVQSLEQTAR", "note": "[L2V]", "protein stability index": 1.91},
      {"variant": "FWAAEQDIREEIRKVVQSLEQTAR", "note": "[L2W]", "protein stability index": 2.02},
      {"variant": "FYAAEQDIREEIRKVVQSLEQTAR", "note": "[L2Y]", "protein stability index": 1.85},
      {"variant": "FLCAEQDIREEIRKVVQSLEQTAR", "note": "[A3C]", "protein stability index": 1.36},
      {"variant": "FLDAEQDIREEIRKVVQSLEQTAR", "note": "[A3D]", "protein stability index": 2.38},
      {"variant": "FLEAEQDIREEIRKVVQSLEQTAR", "note": "[A3E]", "protein stability index": 2.42},
      {"variant": "FLFAEQDIREEIRKVVQSLEQTAR", "note": "[A3F]", "protein stability index": 2.02},
      {"variant": "FLGAEQDIREEIRKVVQSLEQTAR", "note": "[A3G]", "protein stability index": 1.87},
      {"variant": "FLHAEQDIREEIRKVVQSLEQTAR", "note": "[A3H]", "protein stability index": 2.1},
      {"variant": "FLIAEQDIREEIRKVVQSLEQTAR", "note": "[A3I]", "protein stability index": 1.87},
      {"variant": "FLKAEQDIREEIRKVVQSLEQTAR", "note": "[A3K]", "protein stability index": 2.13},
      {"variant": "FLLAEQDIREEIRKVVQSLEQTAR", "note": "[A3L]", "protein stability index": 2.33},
      {"variant": "FLMAEQDIREEIRKVVQSLEQTAR", "note": "[A3M]", "protein stability index": 1.72},
      {"variant": "FLNAEQDIREEIRKVVQSLEQTAR", "note": "[A3N]", "protein stability index": 1.88},
      {"variant": "FLPAEQDIREEIRKVVQSLEQTAR", "note": "[A3P]", "protein stability index": 2.17},
      {"variant": "FLQAEQDIREEIRKVVQSLEQTAR", "note": "[A3Q]", "protein stability index": 1.73},
      {"variant": "FLRAEQDIREEIRKVVQSLEQTAR", "note": "[A3R]", "protein stability index": 2.56},
      {"variant": "FLSAEQDIREEIRKVVQSLEQTAR", "note": "[A3S]", "protein stability index": 2.5},
      {"variant": "FLTAEQDIREEIRKVVQSLEQTAR", "note": "[A3T]", "protein stability index": 2},
      {"variant": "FLVAEQDIREEIRKVVQSLEQTAR", "note": "[A3V]", "protein stability index": 1.88},
      {"variant": "FLWAEQDIREEIRKVVQSLEQTAR", "note": "[A3W]", "protein stability index": 1.5},
      {"variant": "FLYAEQDIREEIRKVVQSLEQTAR", "note": "[A3Y]", "protein stability index": 2.03},
      {"variant": "FLADEQDIREEIRKVVQSLEQTAR", "note": "[A4D]", "protein stability index": 2.11},
      {"variant": "FLAEEQDIREEIRKVVQSLEQTAR", "note": "[A4E]", "protein stability index": 2.51},
      {"variant": "FLAFEQDIREEIRKVVQSLEQTAR", "note": "[A4F]", "protein stability index": 2.71},
      {"variant": "FLAGEQDIREEIRKVVQSLEQTAR", "note": "[A4G]", "protein stability index": 2.04},
      {"variant": "FLAHEQDIREEIRKVVQSLEQTAR", "note": "[A4H]", "protein stability index": 1.57},
      {"variant": "FLAIEQDIREEIRKVVQSLEQTAR", "note": "[A4I]", "protein stability index": 2.08},
      {"variant": "FLAKEQDIREEIRKVVQSLEQTAR", "note": "[A4K]", "protein stability index": 1.71},
      {"variant": "FLALEQDIREEIRKVVQSLEQTAR", "note": "[A4L]", "protein stability index": 2.29},
      {"variant": "FLAMEQDIREEIRKVVQSLEQTAR", "note": "[A4M]", "protein stability index": 1.69},
      {"variant": "FLANEQDIREEIRKVVQSLEQTAR", "note": "[A4N]", "protein stability index": 1.52},
      {"variant": "FLAPEQDIREEIRKVVQSLEQTAR", "note": "[A4P]", "protein stability index": 2.01},
      {"variant": "FLAQEQDIREEIRKVVQSLEQTAR", "note": "[A4Q]", "protein stability index": 2.09},
      {"variant": "FLAREQDIREEIRKVVQSLEQTAR", "note": "[A4R]", "protein stability index": 1.73},
      {"variant": "FLASEQDIREEIRKVVQSLEQTAR", "note": "[A4S]", "protein stability index": 2.54},
      {"variant": "FLATEQDIREEIRKVVQSLEQTAR", "note": "[A4T]", "protein stability index": 2.13},
      {"variant": "FLAVEQDIREEIRKVVQSLEQTAR", "note": "[A4V]", "protein stability index": 1.93},
      {"variant": "FLAYEQDIREEIRKVVQSLEQTAR", "note": "[A4Y]", "protein stability index": 2.03},
      {"variant": "FLAAAQDIREEIRKVVQSLEQTAR", "note": "[E5A]", "protein stability index": 2.69},
      {"variant": "FLAACQDIREEIRKVVQSLEQTAR", "note": "[E5C]", "protein stability index": 2.25},
      {"variant": "FLAADQDIREEIRKVVQSLEQTAR", "note": "[E5D]", "protein stability index": 2.27},
      {"variant": "FLAAFQDIREEIRKVVQSLEQTAR", "note": "[E5F]", "protein stability index": 2.5},
      {"variant": "FLAAGQDIREEIRKVVQSLEQTAR", "note": "[E5G]", "protein stability index": 2.87},
      {"variant": "FLAAHQDIREEIRKVVQSLEQTAR", "note": "[E5H]", "protein stability index": 2.26},
      {"variant": "FLAAIQDIREEIRKVVQSLEQTAR", "note": "[E5I]", "protein stability index": 2.81},
      {"variant": "FLAALQDIREEIRKVVQSLEQTAR", "note": "[E5L]", "protein stability index": 3.1},
      {"variant": "FLAAMQDIREEIRKVVQSLEQTAR", "note": "[E5M]", "protein stability index": 2.79},
      {"variant": "FLAANQDIREEIRKVVQSLEQTAR", "note": "[E5N]", "protein stability index": 3.04},
      {"variant": "FLAAPQDIREEIRKVVQSLEQTAR", "note": "[E5P]", "protein stability index": 3},
      {"variant": "FLAAQQDIREEIRKVVQSLEQTAR", "note": "[E5Q]", "protein stability index": 2.71},
      {"variant": "FLAARQDIREEIRKVVQSLEQTAR", "note": "[E5R]", "protein stability index": 2.66},
      {"variant": "FLAASQDIREEIRKVVQSLEQTAR", "note": "[E5S]", "protein stability index": 2.52},
      {"variant": "FLAATQDIREEIRKVVQSLEQTAR", "note": "[E5T]", "protein stability index": 3.32},
      {"variant": "FLAAVQDIREEIRKVVQSLEQTAR", "note": "[E5V]", "protein stability index": 3.62},
      {"variant": "FLAAWQDIREEIRKVVQSLEQTAR", "note": "[E5W]", "protein stability index": 2.58},
      {"variant": "FLAAYQDIREEIRKVVQSLEQTAR", "note": "[E5Y]", "protein stability index": 1.76},
      {"variant": "FLAAEADIREEIRKVVQSLEQTAR", "note": "[Q6A]", "protein stability index": 2.01},
      {"variant": "FLAAECDIREEIRKVVQSLEQTAR", "note": "[Q6C]", "protein stability index": 1.65},
      {"variant": "FLAAEDDIREEIRKVVQSLEQTAR", "note": "[Q6D]", "protein stability index": 1.85},
      {"variant": "FLAAEEDIREEIRKVVQSLEQTAR", "note": "[Q6E]", "protein stability index": 2.85},
      {"variant": "FLAAEFDIREEIRKVVQSLEQTAR", "note": "[Q6F]", "protein stability index": 1.87},
      {"variant": "FLAAEGDIREEIRKVVQSLEQTAR", "note": "[Q6G]", "protein stability index": 1.84}
    ]}
  ]
}
